Measurements from US6365350B1, “Method of DNA sequencing” (The Institute of Physical and Chemical Research, priority 1997, dated 2002).
Entries after “also recorded” stand apart in the source; their conditions may differ.

Tests used:
[1] = system: DNA containing T7 promoter; details: in vitro, compared with wild type T7 RNA polymerase
Method: Subsequent steps for purification of enzyme should be performed at a temperature lower than room temperature, preferably 0-5° C. unless otherwise indicated. The E. coli cells were washed with 10 times relative to the cell weight of a washing buffer (20 mM Tris-HCl, pH 8.1, 130 mM NaCl, 2 mM EDTANa2 at 25° C.), centrifuged again (5,000×g, 4° C., 10 minutes), suspended in 10 times in volume of a sonication buffer [50 mM Tris-HCl, pH 8.1, 100 mM NaCl, 0.1 mM EDTANa2, 5 mM dithiothreitol (DTT), 0.1 mM benzamidine, 30 μg/ml phenylmethylsulfonyl fluoride (PMSF), 10 μg/ml bacitracin], and sonicated by using Sonifier 450 (Branson) at 80W for more than 15 minutes to destroy the cells and reduce the viscosity of the cells. Then, the cell suspension is centrifuged at 12,000×g and 4° C. for ten minutes to remove the cell debris. 10% streptomycin sulfate was slowly added dropwise to the resulting supernatant to a final concentration of 2.0% with stirring, and stirring was further continued for 30 minutes. The supernatant was centrifuged at 12,000×g and 4° C. for ten minutes to remove precipitates, and slowly added with ammonium sulfate powder with stirring to form precipitates. In this case, precipitates were first collected by 30% saturation of ammonium sulfate (30% ammonium sulfate precipitation), and the resulting supernatant was further added with ammonium sulfate to 60% saturation with stirring to form precipitates again (30-60% ammonium sulfate precipitation). The supernatant was added again with ammonium sulfate powder to 90% ammonium sulfate saturation, and stirred at 4° C. for 1 hour, and the precipitates were collected by centrifugation. […] The.30′60% ammonium sulfate fraction was suspended in a small amount of column buffer (20 mM KPO4, pH 7.7, 100 mM NaCl, 1 mM DTT, 30 μg/ml PMSF), and desalted by dialysis against 500 ml of the same buffer for 16hours. The dialysate was applied on a heparin-Sepharose column of 5 ml volume (Pharmacia Biotech). Subsequently, the column was washed with the same buffer until any material absorbing ultraviolet ray at 280 nm disappeared, and eluted with a linear gradient of 0.1 M to 0.64 M NaCl in the same buffer of about 40 times volume of the column volume. The eluent was collected in test tubes as fractions of a suitable volume, and immediately subjected to SDS-acrylamide gel electrophoresis for protein analysis to identify fractions containing proteins around a molecular weight considered to be of the objective T7 RNA polymerase. […] The fractions containing the protein were collected, and desalted by dialysis against about 1 liter of the column buffer (20 mM KPO4, pH 7.7, 100 mM NaCl, 1 mM DTT, 30 μg/ml PMSF) for 16 hours. The fractions desalted by dialysis were applied to a Q-Sepharose column (Pharmacia Biotech) of 5 ml volume that preliminarily equilibrated with the same buffer, and the column was washed with the same buffer until any material absorbing ultraviolet ray at 280 nm disappeared, and eluted with a linear gradient of 0.1 M to 0.64 M NaCl in the same buffer of about 40 times volume of the column volume. The eluent was collected in test tubes as fractions of a suitable volume, and immediately subjected to SDS-acrylamide gel electrophoresis for protein analysis to identify fractions containing proteins around a molecular weight considered to be of the objective T7 RNA polymerase. […] The fractions containing the protein were collected, dialyzed against 500 ml of storage buffer (50% glycerol, 20 mM KPO4, pH 7.7, 100 mM NaCl, 1 mM DTT, 30 μg/ml PMSF) for 16 hours, and stored at −20° C. until use. In vitro RNA synthesis activity and activity of the contaminated ribonuclease of this sample were examined.

dye terminators = experiment: Sequencing reaction utilizing mutant T7 RNA polymerase F644Y/L665P/F667Y (Example 8); format: biochemical; details: PCR product template, n=4 dye terminators, FIG. 41
3′-dATP = experiment: Inhibition of [α-32P]UTP incorporation by 3′-dATP in transcription reaction (relative activity for 3′-dATP); format: biochemical
[2] = system: 3′-dATP, 3′-dGTP, 3′-dCTP, 3′-dUTP and derivatives thereof
Method: The T7 RNA polymerases introduced with mutations were purified, and their abilities of promoter sequence specific RNA synthesis and incorporation of ribonucleoside 5′-triphosphates including ATP, GTP, CTP, UTP and derivatives thereof, as well as 3′-DATP, 3′-dGTP, 3′-dCTP, 3′-dUTP and derivatives thereof were compared with those of wild type T7 RNA polymerase.
For two kinds of reaction mixture (with or without 3′-DATP, final concentration was 100 μM), the reaction was performed at 37° C. for 60 minutes. The whole reaction mixture was spotted on DE81 paper (Whatman), washed three times with phosphate buffer, and dried. The DE81 paper was placed into a scintillation vial, and radioactivity was measured using a scintillation counter (Beckman) for each reaction. Degree of inhibition of the [α-^32P]UTP incorporation was calculated by comparing the values obtained with and without 3′-dATP based on the measured radioactivity.

B1: F644Y/L665P/F667Y: mutant T7 RNA polymerase introduced with F644Y/L665P/F667Y mutations (protein)
chain: MNTINIAKNDFSDIELAAIPFNTLADHYGERLAREQLALEHESYEMGEARFRKMFERQLKAGEVADNAAAKPLITTLLPKMIARINDWFEEVKAKRGKRPTAFQFLQEIKPEAVAYITIKTTLACLTSADNTTVQAVASAIGRAIEDEARFGRIRDLEAKHFKKNVEEQLNKRVGHVYKKAFMQVVEADMLSKGLLGGEAWSSWHKEDSIHVGVRCIEMLIESTGMVSLHRQNAGVVGQDSETIELAPEYAEAIATRAGALAGISPMFQPCVVPPKPWTGITGGGYWANGRRPLALVRTHSKKALMRYEDVYMPEVYKAINIAQNTAWKINKKVLAVANVITKWKHCPVEDIPAIEREELPMKPEDIDMNPEALTAWKRAAAAVYRKDKARKSRRISLEFMLEQANKFANHKAIWFPYNMDWRGRVYAVSMFNPQGNDMTKGLLTLAKGKPIGKEGYYWLKIHGANCAGVDKVPFPERIKFIEENHENIMACAKSPLENTWWAEQDSPFCFLAFCFEYAGVQHHGLSYNCSLPLAFDGSCSGIQHFSAMLRDEVGGRAVNLLPSETVQDIYGIVAKKVNEILQADAINGTDNEVVTVTDENTGEISEKVKLGTKALAGQWLAYGVTRSVTKRSVMTLAYGSKEYGFRQQVLEDTIQPAIDSGKGPMYTQPNQAAGYMAKLIWESVSVTVVAAVEAMNWLKSAAKLLAAEVKDKKTGEILRKRCAVHWVTPDGFPVWQEYKKPIQTRLNLMFLGQFRLQPTINTNKDSEIDAHKQESGIAPNFVHSQDGSHLRKTVVWAHEKYGIESFALIHDSFGTIPADAANLFKAVRETMVDTYESCDVLADFYDQFADQLHESQLDKMPALPAKGNLNLRDILESDFAFA
- RNA synthesis activity [1]: maintained sufficient RNA synthesis activity
- incorporation rate of dye terminators (electrogram) (dye terminators): improvement of incorporation rate of dye terminators
- bias for the 3′-dATP incorporation (3′-dATP; among the mutant enzymes prepared): the least bias
- more likely to incorporate 3′-dATP in comparison with the wild type enzyme (3′-dATP; from Table 1): 5.58 times
- Relative activity of RNA polymerase for 3′-dATP (3′-dATP; relative value of inhibition degree of [α-32P]UTP incorporation by 100 μM 3′-dATP, wild type normalized to 1.000, 37° C., 60 minutes): 5.580
- bias of incorporation observed in the wild type [2]: markedly reduced
- ability for incorporating 3′-dATP, 3′-dGTP, 3′-dCTP, 3′-dUTP and derivatives thereof ([2]; compared with wild type T7 RNA polymerase): marked improvement; also recorded: the highest; also recorded: markedly improved ability
